According to US20200140532A1 (Ablynx, published 2020):

Columns and labels:
[1] = biological target: T1, recombinant human Aggrecan G1-IGD-G2 (human, UniProt P16112 20-676); experiment: periplasmic extract ELISA
T1 construct: Only the G1-IGD-G2 region was used (R&D Systems 1220-PG is named for the immunogen); also called Hu G1-IGD-G2

[2] = biological target: T2, recombinant rat Aggrecan G1-IGD-G2 (rat, UniProt P07897 20-684, limits assumed); experiment: periplasmic extract ELISA
T2 construct: also called Rat G1-IGD-G2

[3] = biological target: T3, recombinant dog Aggrecan G1-IGD-G2 (dog, UniProt Q28343 20-693, limits assumed); experiment: periplasmic extract ELISA
T3 construct: also called Dog G1-IGD-G2

[4] = biological target: T4, recombinant bovine Aggrecan G1-IGD-G2 (bovine, UniProt P13608 20-684, limits assumed); experiment: periplasmic extract ELISA
T4 construct: also called Bov G1-IGD-G2; Boy G1-IGD-G2

[5] = biological target: T1, recombinant human Aggrecan G1-IGD-G2; experiment: ELISA on recombinant G1-IGD-G2
[6] = biological target: T2, recombinant rat Aggrecan G1-IGD-G2; experiment: ELISA on recombinant G1-IGD-G2
[7] = biological target: T3, recombinant dog Aggrecan G1-IGD-G2; experiment: ELISA on recombinant G1-IGD-G2
[8] = biological target: T4, recombinant bovine Aggrecan G1-IGD-G2; experiment: ELISA on recombinant G1-IGD-G2
[9] = biological target: recombinant human Neurocan (human, UniProt O14594 23-1321, limits assumed); experiment: ELISA on recombinant human Neurocan

| Binder | OD 450 nm [1] [OD 450 nm] | OD 450 nm [2] [OD 450 nm] | OD 450 nm [3] [OD 450 nm] | OD 450 nm [4] [OD 450 nm] | EC50 [5] [nM] | EC50 [6] [nM] | EC50 [7] [nM] | EC50 [8] [nM] | EC50 [9] [nM] |
| --- | --- | --- | --- | --- | --- | --- | --- | --- | --- |
| C0101PMP604B05 (VHH, Tested as E. coli periplasmic extract; not shown: FLAG3 and His6 tags (phagemid pAX212)) VHH: DVQLVESGGGLVQPGGSLRLSCVASGRTFSIYTMAWFRQAPGKEREFVAAISWSSGRTYYADSVKGRFTISRDNSKNTVYLQMNSLRPEDTAVYYCTAYTGPRSGYDYWGQGTLVTVSS | 2.48 | 1.98 | 1.27 | 1.63 | – | – | – | – | – |
| C01010109 (ALB26-608A05-608A05) (VHH, not shown: small tags and cut ends) VHH 1: DVQLVESGGGLVQPGGSLRLSCAASGRTFSTYTMGWFRQAPGKEREFVAAISWSGGTTYYADSVKGRFTISRDNSKNTVYLQMNSLRPEDTAVYYCAARPRYYYYSLYSYDYWGQGTLVTVSS VHH 2: DVQLVESGGGLVQPGGSLRLSCAASGRTFSTYTMGWFRQAPGKEREFVAAISWSGGTTYYADSVKGRFTISRDNSKNTVYLQMNSLRPEDTAVYYCAARPRYYYYSLYSYDYWGQGTLVTVSS | – | – | – | – | 0.1 | 0.095 | 0.33 | 0.077 | – |
| C0101PMP608A05 (VHH, Tested as E. coli periplasmic extract; not shown: FLAG3 and His6 tags (phagemid pAX212)) VHH: DVQLVESGGGLVQPGGSLRLSCAASGRTFSTYTMGWFRQAPGKEREFVAAISWSGGTTYYADSVKGRFTISRDNSKNTVYLQMNSLRPEDTAVYYCAARPRYYYYSLYSYDYWGQGTLVTVSS | 2.33 | 2.39 | 0.86 | 2.27 | – | – | – | – | – |
| C0101PMP604G01 (VHH, Tested as E. coli periplasmic extract; not shown: FLAG3 and His6 tags (phagemid pAX212)) VHH: DVQLVESGGGLVQPGGSLRLSCAASGRTFSSYTMGWFRQAPGKEREFVAAISWSGRTTYYADSVKGRFTISRDNSKNTVYLQMNSLRPEDTAVYYCAAYRRVRYTNLEVWDYWGQGTLVTVSS | 2.27 | 0.6 | 1.55 | 0.68 | – | – | – | – | – |
| C01010118 (ALB26-114F08-114F08) (VHH, not shown: small tags and cut ends, also called C010100118) VHH 1: EVQLVESGGGLVQAGGSLRLSCAASGSTFIINVVRWYRRTPGKQRELVATISSGGNANYVDSVRGRFSISRDGAKNAVDLQMNGLKPEDTAVYYCNVPTTHYGGVYYGPYWGQGTQVTVSS VHH 2: EVQLVESGGGLVQAGGSLRLSCAASGSTFIINVVRWYRRTPGKQRELVATISSGGNANYVDSVRGRFSISRDGAKNAVDLQMNGLKPEDTAVYYCNVPTTHYGGVYYGPYWGQGTQVTVSS | – | – | – | – | 0.11 | 0.19 | 0.24 | 0.37 | – |
| C0101PMP114F08 (VHH, Tested as E. coli periplasmic extract; not shown: FLAG3 and His6 tags (phagemid pAX212)) VHH: EVQLVESGGGLVQAGGSLRLSCAASGSTFIINVVRWYRRTPGKQRELVATISSGGNANYVDSVRGRFSISRDGAKNAVDLQMNGLKPEDTAVYYCNVPTTHYGGVYYGPYWGQGTQVTVSS | 2.38 | 2.05 | 1.9 | 1.18 | – | – | – | – | – |
| C0101PMP112A01 (VHH, Tested as E. coli periplasmic extract; not shown: FLAG3 and His6 tags (phagemid pAX212)) VHH: EVQLVESGGGLVQTGGSLRLSCVASGRAFSNYIMGWFRQAPGKERDFVAAINWNGVTTHYTDSVKGRFTISRDNAKSTSYLQMDSLKPDDTAVYFCAARGTVYSRTYGVSEEGYMYWGQGTQVTVSS | 2.5 | 2.03 | 1.57 | 2.41 | – | – | – | – | – |
| C0101PMP601D02 (VHH, Tested as E. coli periplasmic extract; not shown: FLAG3 and His6 tags (phagemid pAX212)) VHH: DVQLVESGGGLVQPGGSLRLSCAASGPTFSRYAMGWFRQAPGKEREFVAAITWSSGGRTYYADSVKGRFTISRDNSKNTVYLQMNSLRPEDTAVYYCAAARIPVRTYTSEWNYWGQGTLVTVSS | 2.58 | 2.59 | 2.58 | – | – | – | – | – | – |
| C0101PMP609C09 (VHH, Tested as E. coli periplasmic extract; not shown: FLAG3 and His6 tags (phagemid pAX212)) VHH: DVQLVESGGGLVQPGGSLRLSCAASGTIFSINVMGWYRQAPGKEREFVAAITTGGRTNYADSVKGRFTISRDNSKNTVYLQMNSLRPEDTAVYYCNAEVTTGWVGYSWYDYWGQGTMVTVSS | 2.1 | 0.97 | 1.52 | 1.08 | – | – | – | – | – |
| C0101PMP601E09 (VHH, Tested as E. coli periplasmic extract; not shown: FLAG3 and His6 tags (phagemid pAX212)) VHH: DVQLVESGGGLVQPGGSLRLSCAASGLTFSTYAMGWFRQAPGKEREFVAAISWSGSRTYYADSVKGRFTISRDNSKNTVYLQMNSLRPEDTAVYYCAAYRRPRYSPTGTWDYWGQGTLVTVSS | – | 2.61 | 2.57 | – | – | – | – | – | – |
| C0101PMP115B08 (VHH, Tested as E. coli periplasmic extract; not shown: FLAG3 and His6 tags (phagemid pAX212)) VHH: KVQLVESGGGLVQPGGSLRLSCAASGFTFSMYAMKWVRQAPGKGLEWVSGINSSGGRTNYAGSVKGRFTISRDNAKNTLYLQMNSLKPEDTAVYYCATDFLGGRNSRGQGTQVTVSS | 1.65 | 1.85 | 1.8 | 0.84 | – | – | – | – | – |
| C0101PMP113A01 (VHH, Tested as E. coli periplasmic extract; not shown: FLAG3 and His6 tags (phagemid pAX212)) VHH: EVQLVESGGGLVQPGGSLRLSCSASGFTFSGSWMFWVRQAPGKDYEWVASINSSGGRTYYDDSVKGRFTISRDSAKNTLYLEMNNLKPEDTALYFCARSPRVGSWGQGTQVTVSS | 2.56 | 2.53 | 2.51 | 2.54 | – | – | – | – | – |
| C0101PMP604G09 (VHH, Tested as E. coli periplasmic extract; not shown: FLAG3 and His6 tags (phagemid pAX212)) VHH: DVQLVESGGGLVQPGGSLRLSCVASGRTFSSYAMGWFRQAPGKEREFVAAITWSSATTYYADSVKGRFTISRDNSKNTVYLQMNSLRPEDTAVYYCAAARIPVGRRSENWDYWGQGTLVTVSS | 2.41 | 1.4 | 1.16 | 1.21 | – | – | – | – | – |
| C01010113 (ALB26-606A07-606A07) (VHH, not shown: small tags and cut ends, also called AL326-606A07-606A07) VHH 1: DVQLVESGGGLVQPGGSLRLSCVASGRTFSIYGMGWFRQAPGKEREFVAAINGGSRTYYADSVKGRFTISRDNSKNTVYLQMNSLRPEDTAVYYCAADRSGYGTSLDWWYDYWGQGTLVTVSS VHH 2: DVQLVESGGGLVQPGGSLRLSCVASGRTFSIYGMGWFRQAPGKEREFVAAINGGSRTYYADSVKGRFTISRDNSKNTVYLQMNSLRPEDTAVYYCAADRSGYGTSLDWWYDYWGQGTLVTVSS | – | – | – | – | 0.67 | 0.12 | 3 | – | 0.87 |
| C0101PMP606A07 (VHH, Tested as E. coli periplasmic extract; not shown: FLAG3 and His6 tags (phagemid pAX212)) VHH: DVQLVESGGGLVQPGGSLRLSCVASGRTFSIYGMGWFRQAPGKEREFVAAINGGSRTYYADSVKGRFTISRDNSKNTVYLQMNSLRPEDTAVYYCAADRSGYGTSLDWWYDYWGQGTLVTVSS | 0.71 | 2.31 | 1.47 | – | – | – | – | – | – |
| C0101PMP117D05 (VHH, Tested as E. coli periplasmic extract; not shown: FLAG3 and His6 tags (phagemid pAX212)) VHH: KVQLVESGGGLVQAGGSLRLSCAASRRTFNMMGWFRQAPGKEREFVAYITWNGGDTRYAESVKGRFTVSRDDVKNTMALQMNRLDPLDTAVYYCGVRIHGSNWSTKADDYDNWGQGTQVTVSS | 2.25 | 2.35 | 1.53 | 1.92 | – | – | – | – | – |
| C0101PMP112A03 (VHH, Tested as E. coli periplasmic extract; not shown: FLAG3 and His6 tags (phagemid pAX212)) VHH: EVQLVESGGGLVQPGGSLRLSCAASGSIFSNRFMYWYRQAPGKQRELVASITLSGSTNYADSVKGRFTISRDNAKNTVYLQMNSLKPEDTAVYYCNTFLQNSFYWGQGTQVTVSS | 2.51 | 1.69 | 1.47 | 0.73 | – | – | – | – | – |
| C0101PMP601E08 (VHH, Tested as E. coli periplasmic extract; not shown: FLAG3 and His6 tags (phagemid pAX212)) VHH: DVQLVESGGGLVQPGGSLRLSCTASGRTFSSYAVGWFRQAPGKEREFVAAISRSGRSTYYADSVKGRFTISRDNSKNTVYLQMNSLRPEDTAVYYCAAGLSYYSPHAYYDYWGQGTLVTVSS | 2.28 | 2.49 | 0.57 | 1.68 | – | – | – | – | – |
| C01010106 (ALB26-604F02-604F02) (VHH, not shown: large carriers; small tags and cut ends) VHH 1: DVQLVESGGGLVQPGGSLRLSCAASGRTFSSYTMGWFRQAPGKEREFVAAISWSGGRTYYADSVKGRFTISRDNSKNTVYLQMNSLRPEDTAVYYCAAYRRRRASSNRGLWDYWGQGTLVTVSS VHH 2: DVQLVESGGGLVQPGGSLRLSCAASGRTFSSYTMGWFRQAPGKEREFVAAISWSGGRTYYADSVKGRFTISRDNSKNTVYLQMNSLRPEDTAVYYCAAYRRRRASSNRGLWDYWGQGTLVTVSS | – | – | – | – | 0.066 | 0.1 | 0.097 | – | – |
| C0101PMP604F02 (VHH, Tested as E. coli periplasmic extract; not shown: FLAG3 and His6 tags (phagemid pAX212)) VHH: DVQLVESGGGLVQPGGSLRLSCAASGRTFSSYTMGWFRQAPGKEREFVAAISWSGGRTYYADSVKGRFTISRDNSKNTVYLQMNSLRPEDTAVYYCAAYRRRRASSNRGLWDYWGQGTLVTVSS | 2.41 | 0.78 | 1.04 | 0.82 | – | – | – | – | – |
| C0101PMP117G09 (VHH, Tested as E. coli periplasmic extract; not shown: FLAG3 and His6 tags (phagemid pAX212)) VHH: EVQLVESGGGSALPGGSLRLSCAASGITFSSRYMRWYRQAPGRQRELVAAISSGGRTDYVDSVRGRFTLSINNAKNTVYLQMNDLKPEDTAVYYCYRPRMYVDGTYEKELWGQGTLVTVSS | 2.21 | 2.29 | 1.68 | 0.76 | – | – | – | – | – |
